# Test results reported in the supplement of paper PMC9112550, “Optimization of the antimicrobial peptide Bac7 by deep mutational scanning” (BMC Biology, 2022).
# Tested on: Escherichia coli TOP10
# Test: shrunken log2 fold change of peptide-encoding DNA abundance (4.5 h post-induction vs induction); higher = less antimicrobial activity (less host growth inhibition)
# Conditions: time post-induction: 4.5 h; library: site-saturation at positions 5, 18, 19, 20
# 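Note: peptides expressed intracellularly from a pBAD plasmid library in pooled LB shake-flask culture, induced with 0.3% L-arabinose, DNA abundance read by NGS, three biological replicates, DESeq2 with apeglm shrinkage.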
row,Sequence,shrunken log2 fold change
1,RRIRRRPPRLPRPRPRPYECPRP,-0.0148
2,RRIRCRPPRLPRPRPRPCKKPRP,-0.205
3,RRIRTRPPRLPRPRPRPMIDPRP,-0.246
4,RRIRFRPPRLPRPRPRPDHRPRP,0.0119
5,RRIRKRPPRLPRPRPRPGSNPRP,-0.0467
6,RRIRTRPPRLPRPRPRPYFHPRP,-0.909
7,RRIRGRPPRLPRPRPRPAKFPRP,0.549
8,RRIRDRPPRLPRPRPRPFNTPRP,-0.686
9,RRIRVRPPRLPRPRPRPWYFPRP,-0.619
10,RRIRFRPPRLPRPRPRPGMCPRP,-0.0231
11,RRIRTRPPRLPRPRPRPVNKPRP,0.0243
12,RRIRRRPPRLPRPRPRPHIIPRP,-0.259
13,RRIRTRPPRLPRPRPRPLQAPRP,0.00547
14,RRIRPRPPRLPRPRPRPSHMPRP,-0.466
15,RRIRFRPPRLPRPRPRPHHCPRP,-0.198
16,RRIRDRPPRLPRPRPRPIEPPRP,-0.0685
17,RRIRVRPPRLPRPRPRPRNYPRP,-0.567
18,RRIRVRPPRLPRPRPRPCAYPRP,-0.336
19,RRIRGRPPRLPRPRPRPNTYPRP,0.106
20,RRIRVRPPRLPRPRPRPNEFPRP,-0.00739
21,RRIRFRPPRLPRPRPRPSFHPRP,-0.694
22,RRIRRRPPRLPRPRPRPTKDPRP,0.209
23,RRIRVRPPRLPRPRPRPTLFPRP,-0.0123
24,RRIRVRPPRLPRPRPRPVASPRP,0.187
25,RRIRLRPPRLPRPRPRPFFQPRP,0.152

row,Sequence,shrunken log2 fold change
1,RRIRERPPRLPRPRPRPQVIPRP,-0.125
2,RRIRCRPPRLPRPRPRPINPPRP,-0.00918
3,RRIRQRPPRLPRPRPRPVGTPRP,-0.0913
4,RRIRLRPPRLPRPRPRPSQLPRP,-0.282
5,RRIRERPPRLPRPRPRPNSHPRP,-0.8
6,RRIRSRPPRLPRPRPRPTLSPRP,0.0887
7,RRIRVRPPRLPRPRPRPWQVPRP,-0.161
8,RRIRARPPRLPRPRPRPYLWPRP,0.134
9,RRIRSRPPRLPRPRPRPIWPPRP,0.0426
10,RRIRPRPPRLPRPRPRPVTCPRP,-0.237
11,RRIRDRPPRLPRPRPRPDVLPRP,0.0169
12,RRIRIRPPRLPRPRPRPTVIPRP,-0.108
13,RRIRCRPPRLPRPRPRPAKHPRP,-0.23
14,RRIRSRPPRLPRPRPRPFEGPRP,0.123
15,RRIRDRPPRLPRPRPRPDTVPRP,-0.0743
16,RRIRERPPRLPRPRPRPNITPRP,-0.738
17,RRIRMRPPRLPRPRPRPFRPPRP,-0.16
18,RRIRLRPPRLPRPRPRPEMPPRP,0.365
19,RRIRFRPPRLPRPRPRPTSCPRP,-0.0685
20,RRIRIRPPRLPRPRPRPSHIPRP,-0.879
21,RRIRCRPPRLPRPRPRPYGIPRP,-0.128
22,RRIRRRPPRLPRPRPRPINCPRP,-0.129
23,RRIRVRPPRLPRPRPRPYYGPRP,-0.203
24,RRIRCRPPRLPRPRPRPNLTPRP,-0.162
25,RRIRMRPPRLPRPRPRPPWWPRP,1.01

row,Sequence,shrunken log2 fold change
1,RRIRHRPPRLPRPRPRPNFTPRP,-0.104
2,RRIRFRPPRLPRPRPRPRRAPRP,0.678
3,RRIRIRPPRLPRPRPRPSYDPRP,-0.414
4,RRIRCRPPRLPRPRPRPCAVPRP,-0.29
5,RRIRARPPRLPRPRPRPRKHPRP,0.146
6,RRIRDRPPRLPRPRPRPDWIPRP,0.189
7,RRIRGRPPRLPRPRPRPNLYPRP,0.0462
8,RRIRLRPPRLPRPRPRPAKMPRP,-0.169
9,RRIRTRPPRLPRPRPRPSWPPRP,0.0669
10,RRIRKRPPRLPRPRPRPIFFPRP,0.414
11,RRIRTRPPRLPRPRPRPYRFPRP,-0.0191
12,RRIRRRPPRLPRPRPRPRCVPRP,0.402
13,RRIRLRPPRLPRPRPRPKYGPRP,-0.364
14,RRIRTRPPRLPRPRPRPLHDPRP,-0.21
15,RRIRSRPPRLPRPRPRPLRAPRP,0.858
16,RRIRLRPPRLPRPRPRPDTMPRP,-0.286
17,RRIRTRPPRLPRPRPRPERYPRP,0.0845
18,RRIRIRPPRLPRPRPRPGIMPRP,-0.137
19,RRIRWRPPRLPRPRPRPRKWPRP,0.526
20,RRIRPRPPRLPRPRPRPDQDPRP,0.0461
21,RRIRCRPPRLPRPRPRPEGKPRP,0.31
22,RRIRNRPPRLPRPRPRPFKRPRP,0.09
23,RRIRLRPPRLPRPRPRPPWIPRP,-0.35
24,RRIRRRPPRLPRPRPRPCNAPRP,-0.105
25,RRIRQRPPRLPRPRPRPVAVPRP,0.257
